Experimental data: US20220267469A1 (LIPUM, published 2022)
Where a chain is given by its changes, count along the chain named. Names may count otherwise. One block for each binder: values may come before it.

Experiments:
Mouse BSSL, recombinant = target: T1, Mouse BSSL, recombinant (mouse, UniProt Q64285 21-599); assay: SPR steady state, hIgG4 S228P captured by anti-Fab
T1 construct: Bought (R&D Systems, Cat. no 5658-CE); also called mBSSL; murine BSSL
T1 sequence: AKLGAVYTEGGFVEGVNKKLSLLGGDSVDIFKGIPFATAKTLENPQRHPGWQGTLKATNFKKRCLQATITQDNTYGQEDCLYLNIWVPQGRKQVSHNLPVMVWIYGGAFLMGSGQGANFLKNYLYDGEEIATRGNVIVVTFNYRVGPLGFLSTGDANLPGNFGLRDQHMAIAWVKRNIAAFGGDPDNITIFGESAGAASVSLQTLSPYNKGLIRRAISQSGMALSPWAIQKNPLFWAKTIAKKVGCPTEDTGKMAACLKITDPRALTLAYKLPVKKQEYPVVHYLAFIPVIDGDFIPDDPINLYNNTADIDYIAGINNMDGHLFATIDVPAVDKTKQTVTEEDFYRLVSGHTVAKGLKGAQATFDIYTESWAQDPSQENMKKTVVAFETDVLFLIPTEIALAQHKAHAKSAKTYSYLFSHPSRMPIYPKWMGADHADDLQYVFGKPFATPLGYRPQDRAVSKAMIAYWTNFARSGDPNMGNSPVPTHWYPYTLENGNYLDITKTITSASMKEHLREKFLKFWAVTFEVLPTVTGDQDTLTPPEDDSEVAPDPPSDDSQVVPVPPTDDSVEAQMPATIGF
Experimental: (§1) Kinetic parameters of the hIgG4 S228P clones were determined by SPR using BIACORE® T200 (GE Healthcare). Single cycle kinetics was used to measure the affinity of the purified hIgG4 molecules to human and mouse BSSL. An anti-Fab antibody (GE Healthcare, #28958325) was immobilized on a CM5 S sensor chip by primary amine coupling using NHS-EDC chemistry. hIgG4 was captured by the anti-Fab antibody, and subsequently, five different concentrations of hBSSL (1:5 dilutions starting from 50 nM) or mBSSL (1:5 dilutions starting from 500 nM) were injected over the surface. The sensor chip surface was regenerated with 10 mM glycine-HCl pH 2.1. For binding to human BSSL, single cycle kinetic data was fitted to a 1:1 binding model and kinetic parameters were retrieved using software BlAevaluation. For mouse BSSL, a steady state analysis was performed by plotting the response level at equilibrium against each concentration, and KD values were retrieved by the BlAevalution software.

[1] = target: T2, Human BSSL (bile salt-stimulated lipase), native (human, UniProt P19835 21-753); assay: SPR single cycle kinetics, hIgG4 S228P captured by anti-Fab
T2 construct: Native full-length protein purified from human milk (Astra Hässle AB); also called hBSSL; non-biotinylated human BSSL
T2 sequence: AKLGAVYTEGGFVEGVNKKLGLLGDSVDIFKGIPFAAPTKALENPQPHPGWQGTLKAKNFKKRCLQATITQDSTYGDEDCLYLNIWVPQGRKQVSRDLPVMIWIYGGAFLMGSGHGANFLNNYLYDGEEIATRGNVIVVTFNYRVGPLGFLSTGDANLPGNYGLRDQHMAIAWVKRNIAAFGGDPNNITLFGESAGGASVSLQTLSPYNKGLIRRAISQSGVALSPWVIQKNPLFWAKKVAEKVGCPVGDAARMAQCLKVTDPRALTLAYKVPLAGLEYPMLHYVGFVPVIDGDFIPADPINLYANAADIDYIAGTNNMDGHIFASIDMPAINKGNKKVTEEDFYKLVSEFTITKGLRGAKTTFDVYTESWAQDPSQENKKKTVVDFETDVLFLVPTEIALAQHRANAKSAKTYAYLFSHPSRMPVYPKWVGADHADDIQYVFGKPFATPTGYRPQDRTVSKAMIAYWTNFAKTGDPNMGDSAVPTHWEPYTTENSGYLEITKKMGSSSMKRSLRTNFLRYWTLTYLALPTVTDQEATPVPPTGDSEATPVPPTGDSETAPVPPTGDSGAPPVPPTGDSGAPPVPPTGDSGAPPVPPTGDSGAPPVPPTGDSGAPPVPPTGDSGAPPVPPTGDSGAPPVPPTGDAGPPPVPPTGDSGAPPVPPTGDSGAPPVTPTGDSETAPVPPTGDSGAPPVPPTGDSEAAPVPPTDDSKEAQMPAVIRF
Experimental: as §1

Biotinylated human BSSL [2] = target: T3, Biotinylated human BSSL (human, UniProt P19835 21-753, Biotinylated on glycosacarides, 30-40 biotin/BSSL); assay: flow cytometry displacement assay; 0.5 ug antibody, 1 ug b-hBSSL
T3 construct: hBSSL biotinylated in house; also called b-hBSSL; human BSSL-biotin
T3 sequence: T2 sequence
Experimental: (§2) The 28 BSSL-specific hIgG4 antibodies and the five reference antibodies at different concentrations (ranging from 0.5 μg to 3.0 μg per reaction; see Table 10) were added to b-hBSSL (1 μg per reaction, see Table 2) in round-bottom polystyrene tubes, lx PBS (pH 7.4) was added to a final volume of 20 μl and the antibody/b-hBSSL mixtures were incubated for 30 min. at +4° C. to facilitate binding of antibodies to BSSL. Buffy coat (50 μl) was then added to each antibody/b-hBSSL mixture and incubation continued for another 30 min at +4° C. Thereafter, 2 ml of FACS lysing solution (BD Biosciences) was added and the cells were incubated for 10 min at room temperature in order to lyse erythrocytes and fix the white blood cells. The cells were then centrifuged for 5 min. at 200×g, the resulting pellets were washed by adding 2 ml of FACS buffer (1×PBS supplemented with 1% FCS and 0.1% NaN3) and centrifuged again. Finally, the supernatants were discarded and the cells were resuspended in the last drop of liquid, approximately 50 μl.
(§3) 5 μl of BV421-labelled anti-human CD14 (BD Biosciences) and 5 μl of BB515-labelled streptavidin (BD Biosciences) was added to each tube and incubated for 30 min, at +4° C., protected from light. Thereafter, cells were washed twice with FACS buffer, resuspended in 500 μl FACS buffer, and run on BD LSRII flow cytometer (BD Biosciences). Finally, data were analyzed using FlowJo software (BD Biosciences).

Biotinylated human BSSL [3] = target: T3, Biotinylated human BSSL; assay: flow cytometry displacement assay; 1.0 ug antibody, 1 ug b-hBSSL
Experimental: as §2, §3

Biotinylated human BSSL [4] = target: T3, Biotinylated human BSSL; assay: flow cytometry displacement assay; 1.5 ug antibody, 1 ug b-hBSSL
Experimental: as §2, §3

Biotinylated human BSSL [5] = target: T3, Biotinylated human BSSL; assay: flow cytometry displacement assay; 3.0 ug antibody, 1 ug b-hBSSL
Experimental: as §2, §3

Biotinylated human BSSL [6] = target: T3, Biotinylated human BSSL; assay: flow cytometry displacement assay; 2.0 ug antibody, 1 ug b-hBSSL
Experimental: as §2, §3

B1: S-SL048-14 hIgG4 S228P (antibody, V domains shown)
VH: QVQLVQSGAEVKKPGASVKVSCKASGYTFTSYNMHWVRQAPGQGLEWMGVINPGDGATSYAQKFKGRVTMTRDTSTSTVYMELSSLRSEDTAVYYCARDYYGSSPLGYWGQGTLVTVSS
VL: DIQMTQSPSSLSASVGDRVTITCRASPSISYLNWYQQKPGKAPKLLIYATSRLPSGVPSRFSGSGSGTDFTLTISSLQPEDFATYYCQQRSSSPTFGQGTKLEIK
notes: Tested as human IgG4 S228P
- Kd (Mouse BSSL, recombinant): 89 nM
- Kd [1]: 0.9 nM
- percentage reduction of b-hBSSL binding to CD14+ monocytes (Biotinylated human BSSL [2]): 11%
- percentage reduction of b-hBSSL binding to CD14+ monocytes (Biotinylated human BSSL [3]): 32%
- percentage reduction of b-hBSSL binding to CD14+ monocytes (Biotinylated human BSSL [4]): 48%
- percentage reduction of b-hBSSL binding to CD14+ monocytes (Biotinylated human BSSL [5]): 56%

B3: S-SL048-103 hIgG4 S228P (antibody, V domains shown)
VH: B1 VH
VL: B1 VL with P27S, L32M, N33H, R52S, P54A, Q88H
notes: Tested as human IgG4 S228P
- Kd (Mouse BSSL, recombinant): 199 nM
- Kd [1]: 1.7 nM
- percentage reduction of b-hBSSL binding to CD14+ monocytes (Biotinylated human BSSL [2]): 12%
- percentage reduction of b-hBSSL binding to CD14+ monocytes (Biotinylated human BSSL [3]): -1%
- percentage reduction of b-hBSSL binding to CD14+ monocytes (Biotinylated human BSSL [4]): 26%
- percentage reduction of b-hBSSL binding to CD14+ monocytes (Biotinylated human BSSL [5]): 69%

B5: S-SL048-109 hIgG4 S228P (antibody, V domains shown)
VH: B1 VH with G54S
VL: B1 VL with P54A
notes: Tested as human IgG4 S228P
- Kd (Mouse BSSL, recombinant): 353 nM
- Kd [1]: 1.4 nM
- percentage reduction of b-hBSSL binding to CD14+ monocytes (Biotinylated human BSSL [4]): 38%
- percentage reduction of b-hBSSL binding to CD14+ monocytes (Biotinylated human BSSL [5]): 51%

More lines, now with the values ahead:

- Kd (Mouse BSSL, recombinant): 21 nM
- Kd [1]: 4.8 nM
- percentage reduction of b-hBSSL binding to CD14+ monocytes (Biotinylated human BSSL [4]): 29%
- percentage reduction of b-hBSSL binding to CD14+ monocytes (Biotinylated human BSSL [5]): 52%
B2: S-SL048-74 hIgG4 S228P (antibody, V domains shown)
VH: B1 VH with M48I, K65Q
VL: B1 VL with P27Q, T50A, R52S, P54A, Q88H
notes: Tested as human IgG4 S228P

- Kd (Mouse BSSL, recombinant): 79 nM
- Kd [1]: 1.2 nM
- percentage reduction of b-hBSSL binding to CD14+ monocytes (Biotinylated human BSSL [2]): 12%
- percentage reduction of b-hBSSL binding to CD14+ monocytes (Biotinylated human BSSL [3]): 29%
- percentage reduction of b-hBSSL binding to CD14+ monocytes (Biotinylated human BSSL [4]): 51%
- percentage reduction of b-hBSSL binding to CD14+ monocytes (Biotinylated human BSSL [6]): 71%
- percentage reduction of b-hBSSL binding to CD14+ monocytes (Biotinylated human BSSL [5]): 72%
B4: S-SL048-41 hIgG4 S228P (antibody, V domains shown)
VH: B1 VH with M48I, N52Y
VL: B1 VL with P27S, L32M, Q88H
notes: Tested as human IgG4 S228P

- Kd (Mouse BSSL, recombinant): 87 nM
- Kd [1]: 1 nM
- percentage reduction of b-hBSSL binding to CD14+ monocytes (Biotinylated human BSSL [2]): 20%
- percentage reduction of b-hBSSL binding to CD14+ monocytes (Biotinylated human BSSL [3]): 28%
- percentage reduction of b-hBSSL binding to CD14+ monocytes (Biotinylated human BSSL [4]): 44%
- percentage reduction of b-hBSSL binding to CD14+ monocytes (Biotinylated human BSSL [5]): 53%
B6: S-SL048-40 hIgG4 S228P (antibody, V domains shown)
VH: B1 VH with M48I, G54S, K65Q
VL: B1 VL with P27S, T50A
notes: Tested as human IgG4 S228P
